Laboratory results as given in the supplement of paper PMC10567573.

B1: APBB1IP (parent)
chain: FNYSVGFKDLNESLNALEDQDLDA

Variants of: B1
Assay: protein stability index of a GFP-peptide fusion (GPS, HEK-293T) (PSI 1-6); higher = more stable
Conditions: c terminus: a fixed tail appended
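Also: lentivirally expressed fusions sorted by FACS into six bins by GFP to DsRed ratio, PSI derived from sequencing read proportions per bin multiplied by bin number.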

Variant	protein stability index
FNYSVGFKDLNELLNALEDQDLDA [S13L]	2.83
FNYSVGFKDLNEMLNALEDQDLDA [S13M]	3.88
FNYSVGFKDLNENLNALEDQDLDA [S13N]	4.17
FNYSVGFKDLNEKLNALEDQDLDA [S13K]	3.8
FNYSVGFKDLNETLNALEDQDLDA [S13T]	3.72
FNYSVGFKDLNEPLNALEDQDLDA [S13P]	4.41
FNYSVGFKDLNEALNALEDQDLDA [S13A]	4.56
FNYSVGFKDLNEELNALEDQDLDA [S13E]	3.95
FNYSVGFKDLNEDLNALEDQDLDA [S13D]	4.31
FNYSVGFKDLNECLNALEDQDLDA [S13C]	4.25
FNYSVGFKDLNEGLNALEDQDLDA [S13G]	4.58
FNYSVGFKDLNERLNALEDQDLDA [S13R]	4.15
FNYSVGFKDLNEQLNALEDQDLDA [S13Q]	4.51
FNYSVGFKDLNEHLNALEDQDLDA [S13H]	4.51
FNYSVGFKDLNEILNALEDQDLDA [S13I]	2.88
FNYSVGFKDLNEWLNALEDQDLDA [S13W]	2.85
FNYSVGFKDLNEFLNALEDQDLDA [S13F]	3.34
FNYSVGFKDLNEVLNALEDQDLDA [S13V]	3.67
FNYSVGFKDLRESLNALEDQDLDA [N11R]	4.18
FNYSVGFKDLWESLNALEDQDLDA [N11W]	2.58
FNYSVGFKDLDESLNALEDQDLDA [N11D]	4.75
FNYSVGFKDLEESLNALEDQDLDA [N11E]	4.88
FNYSVGFKDLSESLNALEDQDLDA [N11S]	4.21
FNYSVGFKDLLESLNALEDQDLDA [N11L]	3.78

Variant	protein stability index
FNYSVGFKDLTESLNALEDQDLDA [N11T]	4.58
FNYSVGFKDLKESLNALEDQDLDA [N11K]	4.17
FNYSVGFKDLGESLNALEDQDLDA [N11G]	4.29
FNYSVGFKDLPESLNALEDQDLDA [N11P]	4.23
FNYSVGFKDLQESLNALEDQDLDA [N11Q]	4.38
FNYSVGFKDLAESLNALEDQDLDA [N11A]	4.45
FNYSVGFKDLMESLNALEDQDLDA [N11M]	3.68
FNYSVGFKDLIESLNALEDQDLDA [N11I]	3.31
FNYSVGFKDLVESLNALEDQDLDA [N11V]	3.45
FNYSVGFKDLYESLNALEDQDLDA [N11Y]	3.25
FNYSVGFKDLFESLNALEDQDLDA [N11F]	3.62
FNYSVGFKDLHESLNALEDQDLDA [N11H]	4.21
FNYSVGFKDLCESLNALEDQDLDA [N11C]	4.06
FNYFVGFKDLNESLNALEDQDLDA [S4F]	3.24
FNYYVGFKDLNESLNALEDQDLDA [S4Y]	3.42
FNYIVGFKDLNESLNALEDQDLDA [S4I]	3.76
FNYRVGFKDLNESLNALEDQDLDA [S4R]	4.82
FNYVVGFKDLNESLNALEDQDLDA [S4V]	3.72
FNYMVGFKDLNESLNALEDQDLDA [S4M]	4.23
FNYTVGFKDLNESLNALEDQDLDA [S4T]	4.62
FNYWVGFKDLNESLNALEDQDLDA [S4W]	2.56
FNYKVGFKDLNESLNALEDQDLDA [S4K]	4.02
FNYDVGFKDLNESLNALEDQDLDA [S4D]	5.11
FNYQVGFKDLNESLNALEDQDLDA [S4Q]	5.1

Variant	protein stability index
FNYPVGFKDLNESLNALEDQDLDA [S4P]	3.29
FNYHVGFKDLNESLNALEDQDLDA [S4H]	4.79
FNYEVGFKDLNESLNALEDQDLDA [S4E]	5.53
FNYLVGFKDLNESLNALEDQDLDA [S4L]	3.71
FNYNVGFKDLNESLNALEDQDLDA [S4N]	4.61
FNYCVGFKDLNESLNALEDQDLDA [S4C]	4.31
FNYGVGFKDLNESLNALEDQDLDA [S4G]	4.88
FNYSVGFKDLNFSLNALEDQDLDA [E12F]	3.63
FNYSVGFKDLNHSLNALEDQDLDA [E12H]	3.69
FNYSVGFKDLNMSLNALEDQDLDA [E12M]	3.87
FNYSVGFKDLNLSLNALEDQDLDA [E12L]	3.23
FNYSVGFKDLNKSLNALEDQDLDA [E12K]	4.29
FNYSVGFKDLNYSLNALEDQDLDA [E12Y]	3.12
FNYSVGFKDLNNSLNALEDQDLDA [E12N]	4.37
FNYSVGFKDLNRSLNALEDQDLDA [E12R]	3.92
FNYSVGFKDLNSSLNALEDQDLDA [E12S]	4.17
FNYSVGFKDLNQSLNALEDQDLDA [E12Q]	4.28
FNYSVGFKDLNISLNALEDQDLDA [E12I]	3.69
FNYSVGFKDLNWSLNALEDQDLDA [E12W]	2.8
FNYSVGFKDLNVSLNALEDQDLDA [E12V]	3.96
FNYSVGFKDLNGSLNALEDQDLDA [E12G]	4.2
FNYSVGFKDLNTSLNALEDQDLDA [E12T]	4.24
FNYSVGFKDLNPSLNALEDQDLDA [E12P]	4.53
FNYSVGFKDLNASLNALEDQDLDA [E12A]	3.74

Variant	protein stability index
FNYSVGFKDLNCSLNALEDQDLDA [E12C]	2.82
FNYSVGFKDLNDSLNALEDQDLDA [E12D]	4.32
FNYSRGFKDLNESLNALEDQDLDA [V5R]	4.82
FNYSKGFKDLNESLNALEDQDLDA [V5K]	4.65
FNYSWGFKDLNESLNALEDQDLDA [V5W]	3.68
FNYSFGFKDLNESLNALEDQDLDA [V5F]	4.34
FNYSDGFKDLNESLNALEDQDLDA [V5D]	4.65
FNYSMGFKDLNESLNALEDQDLDA [V5M]	4.51
FNYSIGFKDLNESLNALEDQDLDA [V5I]	4.38
FNYSAGFKDLNESLNALEDQDLDA [V5A]	4.95
FNYSYGFKDLNESLNALEDQDLDA [V5Y]	4.09
FNYSHGFKDLNESLNALEDQDLDA [V5H]	4.76
FNYSSGFKDLNESLNALEDQDLDA [V5S]	4.86
FNYSEGFKDLNESLNALEDQDLDA [V5E]	4.47
FNYSNGFKDLNESLNALEDQDLDA [V5N]	4.36
FNYSPGFKDLNESLNALEDQDLDA [V5P]	4.99
FNYSTGFKDLNESLNALEDQDLDA [V5T]	4.96
FNYSGGFKDLNESLNALEDQDLDA [V5G]	4.19
FNYSLGFKDLNESLNALEDQDLDA [V5L]	4.55
FNYSQGFKDLNESLNALEDQDLDA [V5Q]	4.65
FNYSCGFKDLNESLNALEDQDLDA [V5C]	4.08
FNYSVGFKDINESLNALEDQDLDA [L10I]	4.26
FNYSVGFKDGNESLNALEDQDLDA [L10G]	4.95
FNYSVGFKDDNESLNALEDQDLDA [L10D]	5.16

Variant	protein stability index
FNYSVGFKDSNESLNALEDQDLDA [L10S]	5.06
FNYSVGFKDFNESLNALEDQDLDA [L10F]	3.95
FNYSVGFKDANESLNALEDQDLDA [L10A]	4.71
FNYSVGFKDTNESLNALEDQDLDA [L10T]	4.55
FNYSVGFKDWNESLNALEDQDLDA [L10W]	3.95
FNYSVGFKDRNESLNALEDQDLDA [L10R]	4.54
FNYSVGFKDNNESLNALEDQDLDA [L10N]	4.75
FNYSVGFKDHNESLNALEDQDLDA [L10H]	4.58
FNYSVGFKDKNESLNALEDQDLDA [L10K]	4.88
FNYSVGFKDQNESLNALEDQDLDA [L10Q]	4.93
FNYSVGFKDMNESLNALEDQDLDA [L10M]	4.81
FNYSVGFKDENESLNALEDQDLDA [L10E]	5.09
FNYSVGFKDYNESLNALEDQDLDA [L10Y]	4.52
FNYSVGFKDVNESLNALEDQDLDA [L10V]	4.86
FNYSVGFKDCNESLNALEDQDLDA [L10C]	3.5
FNYSVGFKDPNESLNALEDQDLDA [L10P]	4.62
FNYSVGKKDLNESLNALEDQDLDA [F7K]	5.18
FNYSVGGKDLNESLNALEDQDLDA [F7G]	5.22
FNYSVGQKDLNESLNALEDQDLDA [F7Q]	5.15
FNYSVGPKDLNESLNALEDQDLDA [F7P]	4.49
FNYSVGHKDLNESLNALEDQDLDA [F7H]	4.57
FNYSVGNKDLNESLNALEDQDLDA [F7N]	5.13
FNYSVGVKDLNESLNALEDQDLDA [F7V]	4.92
FNYSVGTKDLNESLNALEDQDLDA [F7T]	5.27

Variant	protein stability index
FNYSVGEKDLNESLNALEDQDLDA [F7E]	5.24
FNYSVGMKDLNESLNALEDQDLDA [F7M]	4.48
FNYSVGRKDLNESLNALEDQDLDA [F7R]	5.71
FNYSVGLKDLNESLNALEDQDLDA [F7L]	4.53
FNYSVGIKDLNESLNALEDQDLDA [F7I]	4.21
FNYSVGSKDLNESLNALEDQDLDA [F7S]	5.41
FNYSVGAKDLNESLNALEDQDLDA [F7A]	5.3
FNYSVGDKDLNESLNALEDQDLDA [F7D]	5.21
FNYSVGYKDLNESLNALEDQDLDA [F7Y]	4.55
FNYSVGWKDLNESLNALEDQDLDA [F7W]	3.9
FNYSVGCKDLNESLNALEDQDLDA [F7C]	5.09
FNYSVGFIDLNESLNALEDQDLDA [K8I]	2.51
FNYSVGFMDLNESLNALEDQDLDA [K8M]	3.73
FNYSVGFDDLNESLNALEDQDLDA [K8D]	5.05
FNYSVGFVDLNESLNALEDQDLDA [K8V]	3.52
FNYSVGFLDLNESLNALEDQDLDA [K8L]	3.17
FNYSVGFEDLNESLNALEDQDLDA [K8E]	5.1
FNYSVGFCDLNESLNALEDQDLDA [K8C]	3.36
FNYSVGFSDLNESLNALEDQDLDA [K8S]	4.56
FNYSVGFYDLNESLNALEDQDLDA [K8Y]	3.58
FNYSVGFTDLNESLNALEDQDLDA [K8T]	3.54
FNYSVGFWDLNESLNALEDQDLDA [K8W]	2.27
FNYSVGFQDLNESLNALEDQDLDA [K8Q]	4.72
FNYSVGFADLNESLNALEDQDLDA [K8A]	4.16

Variant	protein stability index
FNYSVGFPDLNESLNALEDQDLDA [K8P]	4.79
FNYSVGFNDLNESLNALEDQDLDA [K8N]	4.74
FNYSVGFFDLNESLNALEDQDLDA [K8F]	2.99
FNYSVGFGDLNESLNALEDQDLDA [K8G]	4.65
FNYSVGFHDLNESLNALEDQDLDA [K8H]	3.81
FNYSVGFRDLNESLNALEDQDLDA [K8R]	4.33
FNYSVGFKPLNESLNALEDQDLDA [D9P]	4.15
FNYSVGFKMLNESLNALEDQDLDA [D9M]	3.86
FNYSVGFKYLNESLNALEDQDLDA [D9Y]	3.44
FNYSVGFKVLNESLNALEDQDLDA [D9V]	2.67
FNYSVGFKNLNESLNALEDQDLDA [D9N]	4.31
FNYSVGFKKLNESLNALEDQDLDA [D9K]	4.19
FNYSVGFKLLNESLNALEDQDLDA [D9L]	3.09
FNYSVGFKGLNESLNALEDQDLDA [D9G]	4.39
FNYSVGFKALNESLNALEDQDLDA [D9A]	3.99
FNYSVGFKCLNESLNALEDQDLDA [D9C]	3.13
FNYSVGFKWLNESLNALEDQDLDA [D9W]	2.7
FNYSVGFKELNESLNALEDQDLDA [D9E]	4.25
FNYSVGFKSLNESLNALEDQDLDA [D9S]	3.45
FNYSVGFKFLNESLNALEDQDLDA [D9F]	3.52
FNYSVGFKRLNESLNALEDQDLDA [D9R]	4.05
FNYSVGFKILNESLNALEDQDLDA [D9I]	2.49
FNYSVGFKQLNESLNALEDQDLDA [D9Q]	4.22
FNYSVGFKHLNESLNALEDQDLDA [D9H]	4.08

Variant	protein stability index
FNYSVGFKTLNESLNALEDQDLDA [D9T]	4.2
FNYSVDFKDLNESLNALEDQDLDA [G6D]	4.85
FNYSVNFKDLNESLNALEDQDLDA [G6N]	4.04
FNYSVKFKDLNESLNALEDQDLDA [G6K]	4.05
FNYSVHFKDLNESLNALEDQDLDA [G6H]	3.71
FNYSVWFKDLNESLNALEDQDLDA [G6W]	2.32
FNYSVEFKDLNESLNALEDQDLDA [G6E]	4.2
FNYSVMFKDLNESLNALEDQDLDA [G6M]	3.12
FNYSVCFKDLNESLNALEDQDLDA [G6C]	3
FNYSVTFKDLNESLNALEDQDLDA [G6T]	3.57
FNYSVVFKDLNESLNALEDQDLDA [G6V]	2.55
FNYSVLFKDLNESLNALEDQDLDA [G6L]	2.3
FNYSVRFKDLNESLNALEDQDLDA [G6R]	3.9
FNYSVQFKDLNESLNALEDQDLDA [G6Q]	4.17
FNYSVYFKDLNESLNALEDQDLDA [G6Y]	1.71
FNYSVPFKDLNESLNALEDQDLDA [G6P]	4.73
FNYSVAFKDLNESLNALEDQDLDA [G6A]	3.34
FNYSVSFKDLNESLNALEDQDLDA [G6S]	3.89
FNYSVIFKDLNESLNALEDQDLDA [G6I]	3.03
FNYSVFFKDLNESLNALEDQDLDA [G6F]	2.58
